Measured values from patent US20060257938A1, “Method of screening for drugs that block ligand binding to a lipid binding protein” (priority 2005, published 2006).

Assays:
[1] = Probe fluorescence intensity change with UCB:BSA; assay type: binding
[2] = Binding affinities of ADIFAB2 compared with ADIFAB; details: greater than ADIFAB
Description: ADIFAB2 also has an altered spectral response, making it especially useful for measurements of FFAu in blood samples (Apple et al, Clinical Proteomics, (2004) 1:41-44, U.S. patent application Ser. No. 10/670,958). The wavelengths at the maximum intensities emitted by these fluorescently-labeled I-FABP's in the absence of FFA is about 420 to 480 nm. The emission wavelengths at the maximum intensities emitted by these fluorescently-labeled I-FABP's with FFA bound are between about 495 to 580 nm. Experiments typically involve measuring the fluorescence response within both emission maxima or at wavelengths for which the effect of interfering molecules such as hemoglobin can be eliminated as described in U.S. application Ser. No. 10/670958 and PCT/US2004/030521 and the calculation of the ratio ‘R’ of the two fluorescence intensities. The baseline value for this ratio, measured in the absence of analyte, is designated R0.

binding affinities relative to ADIFAB [2]: about 10 fold
B1: ADIFAB2: acrylodan-derivatized rI-FABP with Ala substituted for Leu at position 72 (rI-FABP-L72A), SEQ ID NO: 4 (protein, listed as Rattus norvegicus)
chain: AFDGTWKVDRNENYEKFMEKMGINVVKRKLGAHDNLKLTITQEGNKFTVKESSNFRNIDVVFELGVDFAYSAADGTELTGTWTMEGNKLVGKFKRVDNGKELIAVREISGNELIQTYTYEGVEAKRIFKKDRGHHHHHH
modifications: acrylodan label; MUTAGEN (72)...(72) rat intestinal fatty acid binding protein with alanine substitution for leucine at position 72
ΔI/Io 1:1 UCB:BSA 440 nm ([1]; 1:1 UCB:BSA, 440 nm): −0.40
ΔI/Io 1:1 UCB:BSA 500 nm ([1]; 1:1 UCB:BSA, 500 nm): −0.34
ΔI/Io 1:2 UCB:BSA 440 nm ([1]; 1:2 UCB:BSA, 440 nm): −0.19
ΔI/Io 1:2 UCB:BSA 500 nm ([1]; 1:2 UCB:BSA, 500 nm): −0.16
